These results are taken from publication PMC6453860.

What all share (details): glycan lost; control: wild-type ASGP-R1 in U87 cells
The nature of data set [1]: SMN2 exon 7 inclusion RT-PCR, single 30 nM dose.
Data set [2] can be described thus: Western blot quantification normalised to tubulin. For orientation: A western blot detects proteins with antibodies after separation by electrophoresis.
A short description of data set [3]: SMN2 exon 7 inclusion RT-PCR, 0-30 µM dose response.

B1: ASGP-R1 H1a (asialoglycoprotein receptor 1): N79Q (protein)
parent chain: MTKEYQDLQHLDNEESDHHQLRKGPPPPQPLLQRLCSGPRLLLLSLGLSLLLLVVVCVIGSQNSQLQEELRGLRETFSNFTASTEAQVKGLSTQGGNVGRKMKSLESQLEKQQKDLSEDHSSLLLHVKQFVSDLRSLSCQMAALQGNGSERTCCPVNWVEHERSCYWFSRSGKAWADADNYCRLEDAHLVVVTSWEEQKFVQHHIGPVNTWMGLHDQNGPWKWVDGTDYETGFKNWRPEQPDDWYGHGLGGGEDCAHFTDDGRWNDDVCQRPYRWVCETELDKASQEPPLL
On to B1, for which the “other: receptor-mediated GN3-ASO uptake and activity” value in data set [1] is “no change”. Moreover, the expression_or_secretion entry in data set [2] is reported as “no change”. For the same protein, the “other: receptor-mediated GN3-ASO uptake and activity, fold_change” value in data set [3] is “no change”.

B2: ASGP-R1 H1a (asialoglycoprotein receptor 1): N147Q (protein)
parent chain: B1 parent chain
In the case of B2, the “other: receptor-mediated GN3-ASO uptake and activity” value in data set [1] is listed as “no change”. Besides, the expression_or_secretion entry in data set [2] is “no change”. In data set [3], the “other: receptor-mediated GN3-ASO uptake and activity, fold_change” value was “no change”.

B3: ASGP-R1 H1a (asialoglycoprotein receptor 1): N79Q/N147Q (protein)
parent chain: B1 parent chain
For B3, in data set [1], the “other: receptor-mediated GN3-ASO uptake and activity” value is listed as “no change”. Also, the expression_or_secretion entry in data set [2] was “no change”.
